Results from the supplement of paper PMC7877785.
± gives the uncertainty stated by the source.

Assay: self-splicing fitness, log relative to wild type (ln ratio); higher = more splicing; Tetrahymena group I intron in knt gene, E. coli kanamycin selection, DiMSum; sequences stand for … in CUCUCU…GGAGGGAAAAGUUAUCAGGCAUGCACCUGGUAGCUAGUCUUUAAACCAAUAGAUUGCAUCGGUUUAAAAGGCAAGACCGUCAAAUUGCGGGAAAGGGGUCAACAGCCGUUCAGUACCAAGUCUCAGGGGAAACUUUGAGAUGGCCUUGCAAAGGGUAUGGUAAUAAGCUGACGGACAUGGUCCUAACCACGCAGCCAAGUCCUAAGUCAACAGAUCUUCUGUUGAUAUGGAUGCAGUUCACAGACUAAAUGUCGGUCGGGGAAGAUGUAUUCUUCUCAUAAGAUAUAGUCGGACCUCUCCUUAAUGGGAGCUAGCGGAUGAAGUGAUGCAACACUGGAGCCGCUGGGAACUAAUUUGUAUGCGAAAGUAUAUUGAUUAGUUUUGGAGUACUCGUGGUCG
Outline: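 Pooled colonies went to amplicon sequencing on an Illumina HiSeq 2500 after six replicate transformations. The plates were LB agar with 100 μg/mL carbenicillin, 50 μM IPTG and 0.2% rhamnose, with or without 25 μg/mL kanamycin, incubated overnight at 37°C or 30°C. The E. coli BL21(DE3) library had all eight P1ex-region intron nucleotides randomised, the intron placed in the knt kanamycin-resistance gene on pET-22b(+). DiMSum fitness is the error-weighted combination of replicate fold changes, kanamycin against none, normalised to wild type.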

Row | Sequence | self-splicing fitness (ln) (30 °C) | self-splicing fitness (ln) (37 °C)
1 | AUUGAGCAAUAUUACGGUGG | -3.84 ± 0.46 | -1.27 ± 0.15
2 | AAGUAGCAAUAUUACGGACC | – | -0.466 ± 0.37
3 | AAGAAGCAAUAUUACGAGCU | -0.998 ± 0.087 | -1.22 ± 0.11
4 | CCUAAGCAAUAUUACGCCCG | -2.22 ± 0.22 | -0.795 ± 0.26
5 | GGUAAGCAAUAUUACGGGUG | -3.24 ± 0.12 | -1.85 ± 0.088
6 | UACGAGCAAUAUUACGGUAG | -2.97 ± 0.14 | -2.35 ± 0.17
7 | ACUAAGCAAUAUUACGUCCA | -1.54 ± 0.12 | -1.22 ± 0.16
8 | AAAUAGCAAUAUUACGGCAC | -0.691 ± 0.1 | 0.0337 ± 0.12
9 | AAAGAGCAAUAUUACGCCGA | -1.81 ± 0.29 | -2.33 ± 0.34
10 | ACUCAGCAAUAUUACGAGCU | -1.04 ± 0.064 | -0.447 ± 0.079
11 | GACUAGCAAUAUUACGGAGU | -4.2 ± 0.25 | -2.87 ± 0.21
12 | ACUUAGCAAUAUUACGCGUA | -1.82 ± 0.2 | -1.18 ± 0.2
13 | CAACAGCAAUAUUACGCUAC | -4.32 ± 0.24 | -2.3 ± 0.15
14 | UGUCAGCAAUAUUACGAACG | -0.137 ± 0.086 | 0.589 ± 0.11
15 | UGGUAGCAAUAUUACGGUCC | -2.05 ± 0.29 | -1.24 ± 0.33
16 | CGCGAGCAAUAUUACGGUGA | -2.81 ± 0.14 | -1.7 ± 0.11
17 | AGUCAGCAAUAUUACGCCGA | -1.92 ± 0.25 | -1.92 ± 0.3
18 | GACGAGCAAUAUUACGCCAU | -2.23 ± 0.49 | –
19 | GGGAAGCAAUAUUACGGAGC | -1.91 ± 0.21 | -1.3 ± 0.21
20 | CCUAAGCAAUAUUACGAAAG | -1.75 ± 0.18 | 0.000192 ± 0.18
21 | AGAGAGCAAUAUUACGGUUU | -1.98 ± 0.19 | -2.58 ± 0.25
22 | UAACAGCAAUAUUACGACUU | -0.586 ± 0.084 | 0.316 ± 0.11
23 | GCAGAGCAAUAUUACGUGCG | -2.76 ± 0.096 | -0.667 ± 0.1
24 | AGUAAGCAAUAUUACGCCGU | -0.289 ± 0.17 | -2.06 ± 0.31
25 | GACUAGCAAUAUUACGUAAU | -1.31 ± 0.077 | -0.482 ± 0.092
26 | ACCAAGCAAUAUUACGGUGA | -1.68 ± 0.1 | -1.29 ± 0.083

Row | Sequence | self-splicing fitness (ln) (30 °C) | self-splicing fitness (ln) (37 °C)
27 | CGACAGCAAUAUUACGGUAG | -1.47 ± 0.069 | -0.946 ± 0.069
28 | GUGAAGCAAUAUUACGCAUU | -2.66 ± 0.27 | -1.05 ± 0.15
29 | AUACAGCAAUAUUACGGAUC | -3.54 ± 0.23 | -2.53 ± 0.23
30 | AUGGAGCAAUAUUACGCUGA | -3.48 ± 0.24 | -3.11 ± 0.35
31 | CCUGAGCAAUAUUACGCUCU | -3.59 ± 0.43 | -2.26 ± 0.25
32 | UAGAAGCAAUAUUACGGGUU | -4.54 ± 0.34 | -1.87 ± 0.2
33 | GAGUAGCAAUAUUACGCAUA | -2.47 ± 0.25 | -1.54 ± 0.24
34 | CAGGAGCAAUAUUACGGGAA | -4.1 ± 0.23 | -2.47 ± 0.17
35 | UCUAAGCAAUAUUACGAACG | -1.64 ± 0.094 | -1.28 ± 0.11
36 | AAGCAGCAAUAUUACGACAA | -1.06 ± 0.075 | -0.277 ± 0.072
37 | UUAGAGCAAUAUUACGGCUA | -0.0336 ± 0.14 | 0.4 ± 0.17
38 | AUCGAGCAAUAUUACGACUG | -2.17 ± 0.13 | -1.64 ± 0.15
39 | UUAUAGCAAUAUUACGAAGU | -3.61 ± 0.45 | -2.44 ± 0.28
40 | GAGGAGCAAUAUUACGGCUG | -1.48 ± 0.15 | -1.88 ± 0.31
41 | UCUCAGCAAUAUUACGUCAA | -3.21 ± 0.27 | -2.35 ± 0.21
42 | GGAGAGCAAUAUUACGUGUC | -3.21 ± 0.26 | -1.46 ± 0.24
43 | UACGAGCAAUAUUACGGGGU | -3.05 ± 0.14 | -2.28 ± 0.14
44 | GUUCAGCAAUAUUACGACGA | -1.26 ± 0.21 | -0.637 ± 0.18
45 | GCUGAGCAAUAUUACGUGCC | -3.37 ± 0.34 | –
46 | UCUGAGCAAUAUUACGAUUA | -1.85 ± 0.17 | -1.49 ± 0.21
47 | GCUAAGCAAUAUUACGUGUG | -1.22 ± 0.079 | -0.636 ± 0.098
48 | UCGUAGCAAUAUUACGCAUA | -1.57 ± 0.16 | -1.34 ± 0.21
49 | GAUGAGCAAUAUUACGGAGU | -3.16 ± 0.26 | -2.71 ± 0.38
50 | CCCGAGCAAUAUUACGCAGG | -1.97 ± 0.2 | -1.36 ± 0.22
51 | CUCCAGCAAUAUUACGAGAU | -2.99 ± 0.19 | -3.15 ± 0.21
52 | ACUAAGCAAUAUUACGCCCU | 0.438 ± 0.23 | -0.36 ± 0.26

Row | Sequence | self-splicing fitness (ln) (30 °C) | self-splicing fitness (ln) (37 °C)
53 | AUGCAGCAAUAUUACGCAAC | -2.42 ± 0.18 | -2.58 ± 0.2
54 | CGCGAGCAAUAUUACGUUGC | -3.68 ± 0.3 | –
55 | UUGUAGCAAUAUUACGACUA | -0.429 ± 0.13 | -0.0263 ± 0.16
56 | UUUUAGCAAUAUUACGCAAG | -1.08 ± 0.15 | -1.14 ± 0.21
57 | GGCGAGCAAUAUUACGUCUA | -1.86 ± 0.19 | -0.451 ± 0.15
58 | UACAAGCAAUAUUACGGACG | -0.321 ± 0.075 | 0.44 ± 0.097
59 | GUCAAGCAAUAUUACGAGUC | -3.75 ± 0.2 | -2.87 ± 0.26
60 | UUCUAGCAAUAUUACGGUCC | – | -2.46 ± 0.39
61 | GCCGAGCAAUAUUACGUCCC | -0.316 ± 0.14 | -0.826 ± 0.22
62 | UCAGAGCAAUAUUACGGCCA | -2.1 ± 0.27 | -2.17 ± 0.32
63 | AGGAAGCAAUAUUACGGAUG | -3.64 ± 0.2 | -2.37 ± 0.22
64 | CUUUAGCAAUAUUACGGUCC | – | -1.77 ± 0.32
65 | ACCAAGCAAUAUUACGUGGU | -3.41 ± 0.1 | -2.69 ± 0.13
66 | CAUAAGCAAUAUUACGUAGU | -3.82 ± 0.28 | -0.576 ± 0.17
67 | CAUUAGCAAUAUUACGUUAU | – | -1.91 ± 0.22
68 | GUAGAGCAAUAUUACGGUCG | -2.63 ± 0.19 | -1.8 ± 0.19
69 | GCGCAGCAAUAUUACGGGCA | -2.9 ± 0.14 | -1.24 ± 0.11
70 | GAUCAGCAAUAUUACGUAUC | -3.17 ± 0.21 | -2.62 ± 0.21
71 | GACGAGCAAUAUUACGAUGA | -4.01 ± 0.39 | -2.14 ± 0.2
72 | GGCGAGCAAUAUUACGACUA | -0.848 ± 0.12 | -0.00409 ± 0.11
73 | CCAAAGCAAUAUUACGCGGA | -3.47 ± 0.22 | -2.76 ± 0.3
74 | UCCCAGCAAUAUUACGUAGG | -4.06 ± 0.17 | -1.08 ± 0.11
75 | ACUUAGCAAUAUUACGACAG | -0.902 ± 0.08 | 0.0363 ± 0.1
76 | AAUCAGCAAUAUUACGUUAG | -3.15 ± 0.2 | -2.86 ± 0.23
77 | UUAUAGCAAUAUUACGAUAG | -0.194 ± 0.16 | -0.527 ± 0.16
